Measurements from paper PMC4255728.

What was measured:
[1] = molecular target: Saccharomyces cerevisiae cytochrome c oxidase, 5A isoenzyme (strain WTCOX5A) (S. cerevisiae) (UniProt P00401)
[2] = molecular target: Saccharomyces cerevisiae cytochrome c oxidase, 5B isoenzyme (strain ΔROX1ΔCOX5A, COX5B under its own promoter) (S. cerevisiae) (UniProt P00401)
[3] = molecular target: Saccharomyces cerevisiae cytochrome c oxidase, 5B isoenzyme (strain COX5B, COX5B downstream of the COX5A promoter) (S. cerevisiae) (UniProt P00401)

Km for cyt c (low-affinity phase), steady-state oxygen consumption of mitos, 1.25-350 μM cyt c, 25°C, pH 6.6, 50 mM KCl, 0.05% DDM [1] [μM]	Km for cyt c (low-affinity phase), steady-state oxygen consumption of mitos, 1.25-350 μM cyt c, 25°C, pH 6.6, 50 mM KCl, 0.05% DDM [2] [μM]	Km for cyt c (low-affinity phase), steady-state oxygen consumption of mitos, 1.25-350 μM cyt c, 25°C, pH 6.6, 50 mM KCl, 0.05% DDM [3] [μM]	Km for cyt c (low-affinity phase of biphasic kinetics), steady-state oxygen consumption of mitos, 1.25-350 μM cyt c, 25°C, pH 6.6, 50 mM KCl, 0.05% DDM [1] [μM]	Km for cyt c (low-affinity phase of biphasic kinetics), steady-state oxygen consumption of mitos, 1.25-350 μM cyt c, 25°C, pH 6.6, 50 mM KCl, 0.05% DDM [2] [μM]	Km for cyt c (low-affinity phase of biphasic kinetics), steady-state oxygen consumption of mitos, 1.25-350 μM cyt c, 25°C, pH 6.6, 50 mM KCl, 0.05% DDM [3] [μM]	Substance
13.9	10.8	14.5	–	–	–	Horse heart cytochrome c (from UniProt P00004 1-105) (natural protein)
–	–	–	23.9	47.8	59.5	Yeast iso-2 cytochrome c (isoform-2) (from UniProt P00045 1-113) (natural protein)
–	–	–	29.8	41.2	39.5	Yeast iso-1 cytochrome c (isoform-1) (from UniProt P00044 1-109) (natural protein)
